Patent US20140087995A1 (published 2014)
Numbered stars: 1 amine (or outer) side, 2 acyl side, 3 side chain; on linkers, the order of the positions; unused ones are H or OH. Bridge positions count the residues as written; N and C are the ends. Side chains are listed from the residue outwards. Ends that are not written are not given here. * marks the point of attachment. C20 diacid = O=C(O)CCCCCCCCCCCCCCCCCCC(=O)*; γGlu = O=C(O)[C@H](CCC(=O)[*:2])N[*:1]; AEEA = NCCOCCOCC(=O)O

T1: human amylin receptor (amylin 3(a) receptor: human calcitonin receptor plus RAMP-3) (human, UniProt P30988 25-474; O60896 24-148, limits assumed)
T1 sequence (looked up) 1: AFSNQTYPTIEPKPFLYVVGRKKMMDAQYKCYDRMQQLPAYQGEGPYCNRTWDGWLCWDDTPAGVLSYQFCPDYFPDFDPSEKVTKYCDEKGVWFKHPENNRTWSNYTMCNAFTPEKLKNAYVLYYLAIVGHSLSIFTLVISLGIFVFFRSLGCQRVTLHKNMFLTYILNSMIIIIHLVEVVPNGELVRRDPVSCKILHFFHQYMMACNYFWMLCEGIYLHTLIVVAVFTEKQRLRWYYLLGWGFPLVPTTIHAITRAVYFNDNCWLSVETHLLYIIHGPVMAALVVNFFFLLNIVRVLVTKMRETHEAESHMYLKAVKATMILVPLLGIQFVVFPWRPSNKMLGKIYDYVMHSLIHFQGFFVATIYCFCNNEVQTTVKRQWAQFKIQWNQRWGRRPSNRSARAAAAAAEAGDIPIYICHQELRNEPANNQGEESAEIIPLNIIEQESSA
T1 sequence (looked up) 2: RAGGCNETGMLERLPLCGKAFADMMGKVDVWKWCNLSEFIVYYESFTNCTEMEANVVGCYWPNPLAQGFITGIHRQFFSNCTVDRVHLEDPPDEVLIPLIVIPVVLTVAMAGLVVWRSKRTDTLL

T2: human calcitonin receptor (human, UniProt P30988 25-474)
T2 sequence (looked up): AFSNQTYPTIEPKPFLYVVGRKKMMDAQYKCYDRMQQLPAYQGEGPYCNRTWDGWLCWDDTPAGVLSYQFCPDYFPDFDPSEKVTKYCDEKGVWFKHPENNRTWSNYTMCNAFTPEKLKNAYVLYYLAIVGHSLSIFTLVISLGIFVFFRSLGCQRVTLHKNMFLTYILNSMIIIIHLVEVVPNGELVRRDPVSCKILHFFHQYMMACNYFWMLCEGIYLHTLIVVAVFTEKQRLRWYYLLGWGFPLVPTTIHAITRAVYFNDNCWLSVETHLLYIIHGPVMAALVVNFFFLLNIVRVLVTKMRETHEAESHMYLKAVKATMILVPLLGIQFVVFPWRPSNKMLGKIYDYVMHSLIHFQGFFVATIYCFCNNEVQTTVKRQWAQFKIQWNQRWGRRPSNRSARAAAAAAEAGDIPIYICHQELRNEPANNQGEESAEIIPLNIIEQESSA


How the values were obtained:
[1] = target: T1, human amylin receptor (amylin 3(a) …); experiment: cell-based or functional assay
[2] = target: T2, human calcitonin receptor; experiment: cell-based or functional assay

Row | Ratio hCT/hAmylin funct. [1] [ratio] | hAmylin-R funct. EC50 [1] [pM] | hCTR funct. EC50 [2] [pM] | Binder
1 | 10.2 | 88 | 899 | {C20 diacid-γGlu}-GRCNTATCATQRLANFLRHSSPNFGAIPSSTNVGSNTY-NH2 (disulfide 3-8; SMILES CC[C@H](C)[C@H](NC(=O)[C@H](C)NC(=O)CNC(=O)[C@H](Cc1ccccc1)NC(=O)[C@H](CC(N)=O)NC(=O)[C@@H]1CCCN1C(=O)[C@H](CO)NC(=O)[C@H](CO)NC(=O)[C@H](Cc1c[nH]cn1)NC(=O)[C@H](CCCNC(=N)N)NC(=O)[C@H](CC(C)C)NC(=O)[C@H](Cc1ccccc1)NC(=O)[C@H](CC(N)=O)NC(=O)[C@H](C)NC(=O)[C@H](CC(C)C)NC(=O)[C@H](CCCNC(=N)N)NC(=O)[C@H](CCC(N)=O)NC(=O)[C@@H](NC(=O)[C@H](C)NC(=O)[C@@H]1CSSC[C@H](NC(=O)[C@H](CCCNC(=N)N)NC(=O)CNC(=O)CC[C@H](NC(=O)CCCCCCCCCCCCCCCCCCC(=O)O)C(=O)O)C(=O)N[C@@H](CC(N)=O)C(=O)N[C@@H]([C@@H](C)O)C(=O)N[C@@H](C)C(=O)N[C@@H]([C@@H](C)O)C(=O)N1)[C@@H](C)O)C(=O)N1CCC[C@H]1C(=O)N[C@@H](CO)C(=O)N[C@@H](CO)C(=O)N[C@H](C(=O)N[C@@H](CC(N)=O)C(=O)N[C@H](C(=O)NCC(=O)N[C@@H](CO)C(=O)N[C@@H](CC(N)=O)C(=O)N[C@H](C(=O)N[C@@H](Cc1ccc(O)cc1)C(N)=O)[C@@H](C)O)C(C)C)[C@@H](C)O, Synthetic acylated analogue of human amylin, extended by Gly at the N-terminus; also called compound 46) [N^-1-[(4S)-4-carboxy-4-(19-carboxynonadecanoylamino)butanoyl]-Gly[Arg1,Arg17,Pro21,Pro27]-h-amylin]
2 | 17 | 116 | 1970 | K([γGlu-C20 diacid])CNTATCATQRLANFLRHSSPNFGAIPSSTNVGSNTY-NH2 (disulfide 2-7; N-terminus assumed; SMILES CC[C@H](C)[C@H](NC(=O)[C@H](C)NC(=O)CNC(=O)[C@H](Cc1ccccc1)NC(=O)[C@H](CC(N)=O)NC(=O)[C@@H]1CCCN1C(=O)[C@H](CO)NC(=O)[C@H](CO)NC(=O)[C@H](Cc1c[nH]cn1)NC(=O)[C@H](CCCNC(=N)N)NC(=O)[C@H](CC(C)C)NC(=O)[C@H](Cc1ccccc1)NC(=O)[C@H](CC(N)=O)NC(=O)[C@H](C)NC(=O)[C@H](CC(C)C)NC(=O)[C@H](CCCNC(=N)N)NC(=O)[C@H](CCC(N)=O)NC(=O)[C@@H](NC(=O)[C@H](C)NC(=O)[C@@H]1CSSC[C@H](NC(=O)[C@@H](N)CCCCNC(=O)CC[C@H](NC(=O)CCCCCCCCCCCCCCCCCCC(=O)O)C(=O)O)C(=O)N[C@@H](CC(N)=O)C(=O)N[C@@H]([C@@H](C)O)C(=O)N[C@@H](C)C(=O)N[C@@H]([C@@H](C)O)C(=O)N1)[C@@H](C)O)C(=O)N1CCC[C@H]1C(=O)N[C@@H](CO)C(=O)N[C@@H](CO)C(=O)N[C@H](C(=O)N[C@@H](CC(N)=O)C(=O)N[C@H](C(=O)NCC(=O)N[C@@H](CO)C(=O)N[C@@H](CC(N)=O)C(=O)N[C@H](C(=O)N[C@@H](Cc1ccc(O)cc1)C(N)=O)[C@@H](C)O)C(C)C)[C@@H](C)O, Synthetic acylated analogue of human amylin; also called compound 48) [N^ε1-[(4S)-4-carboxy-4-(19-carboxynonadecanoylamino)butanoyl]-[Arg17,Pro21,Pro27]-h-amylin]

Further lines, the binder ahead of its results:

Row | Binder | Ratio hCT/hAmylin funct. [1] [ratio] | hAmylin-R funct. EC50 [1] [pM] | hCTR funct. EC50 [2] [pM]
3 | K([AEEA-γGlu-C20 diacid])RCNTATCATQRLANFLRHSSPNFGAIPSSTNVGSHTY-NH2 (disulfide 3-8; N-terminus assumed; SMILES CC[C@H](C)[C@H](NC(=O)[C@H](C)NC(=O)CNC(=O)[C@H](Cc1ccccc1)NC(=O)[C@H](CC(N)=O)NC(=O)[C@@H]1CCCN1C(=O)[C@H](CO)NC(=O)[C@H](CO)NC(=O)[C@H](Cc1c[nH]cn1)NC(=O)[C@H](CCCNC(=N)N)NC(=O)[C@H](CC(C)C)NC(=O)[C@H](Cc1ccccc1)NC(=O)[C@H](CC(N)=O)NC(=O)[C@H](C)NC(=O)[C@H](CC(C)C)NC(=O)[C@H](CCCNC(=N)N)NC(=O)[C@H](CCC(N)=O)NC(=O)[C@@H](NC(=O)[C@H](C)NC(=O)[C@@H]1CSSC[C@H](NC(=O)[C@H](CCCNC(=N)N)NC(=O)[C@@H](N)CCCCNC(=O)COCCOCCNC(=O)CC[C@H](NC(=O)CCCCCCCCCCCCCCCCCCC(=O)O)C(=O)O)C(=O)N[C@@H](CC(N)=O)C(=O)N[C@@H]([C@@H](C)O)C(=O)N[C@@H](C)C(=O)N[C@@H]([C@@H](C)O)C(=O)N1)[C@@H](C)O)C(=O)N1CCC[C@H]1C(=O)N[C@@H](CO)C(=O)N[C@@H](CO)C(=O)N[C@H](C(=O)N[C@@H](CC(N)=O)C(=O)N[C@H](C(=O)NCC(=O)N[C@@H](CO)C(=O)N[C@@H](Cc1c[nH]cn1)C(=O)N[C@H](C(=O)N[C@@H](Cc1ccc(O)cc1)C(N)=O)[C@@H](C)O)C(C)C)[C@@H](C)O, Synthetic acylated analogue of human amylin, extended by Lys at the N-terminus; also called compound 45) | 17 | 594 | 10100
4 | {C20 diacid-γGlu}-GRCNTATCATQRLANFLRHSSPNFGAIPSSTNVGSHTY-NH2 (disulfide 3-8; SMILES CC[C@H](C)[C@H](NC(=O)[C@H](C)NC(=O)CNC(=O)[C@H](Cc1ccccc1)NC(=O)[C@H](CC(N)=O)NC(=O)[C@@H]1CCCN1C(=O)[C@H](CO)NC(=O)[C@H](CO)NC(=O)[C@H](Cc1c[nH]cn1)NC(=O)[C@H](CCCNC(=N)N)NC(=O)[C@H](CC(C)C)NC(=O)[C@H](Cc1ccccc1)NC(=O)[C@H](CC(N)=O)NC(=O)[C@H](C)NC(=O)[C@H](CC(C)C)NC(=O)[C@H](CCCNC(=N)N)NC(=O)[C@H](CCC(N)=O)NC(=O)[C@@H](NC(=O)[C@H](C)NC(=O)[C@@H]1CSSC[C@H](NC(=O)[C@H](CCCNC(=N)N)NC(=O)CNC(=O)CC[C@H](NC(=O)CCCCCCCCCCCCCCCCCCC(=O)O)C(=O)O)C(=O)N[C@@H](CC(N)=O)C(=O)N[C@@H]([C@@H](C)O)C(=O)N[C@@H](C)C(=O)N[C@@H]([C@@H](C)O)C(=O)N1)[C@@H](C)O)C(=O)N1CCC[C@H]1C(=O)N[C@@H](CO)C(=O)N[C@@H](CO)C(=O)N[C@H](C(=O)N[C@@H](CC(N)=O)C(=O)N[C@H](C(=O)NCC(=O)N[C@@H](CO)C(=O)N[C@@H](Cc1c[nH]cn1)C(=O)N[C@H](C(=O)N[C@@H](Cc1ccc(O)cc1)C(N)=O)[C@@H](C)O)C(C)C)[C@@H](C)O, Synthetic acylated analogue of human amylin, extended by Gly at the N-terminus; also called compound 47) | 6 | 222 | 1320
